{
  "source": "paper PMC9040798",
  "assay_in_all_cases": "EMSA",
  "settings_in_all_cases": "DIG gel shift kit (2nd generation, Roche), as in ref 14; buffer, salt, pH and temperature not stated",
  "key": {"[1]": {"system": "T1, GdhR P6S P6S (Neisseria gonorrhoeae MS11), ORF:8165ddaf", "T1 sequence": "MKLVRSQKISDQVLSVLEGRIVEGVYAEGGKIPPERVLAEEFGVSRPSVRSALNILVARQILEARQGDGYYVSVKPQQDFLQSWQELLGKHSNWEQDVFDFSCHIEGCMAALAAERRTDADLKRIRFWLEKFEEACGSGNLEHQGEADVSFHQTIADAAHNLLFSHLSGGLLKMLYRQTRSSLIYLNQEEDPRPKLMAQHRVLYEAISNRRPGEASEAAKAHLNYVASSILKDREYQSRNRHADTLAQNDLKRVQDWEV"}, "[2]": {"system": "T2, GdhR WT (Neisseria gonorrhoeae), ORF:8165ddaf", "T2 sequence": "T1 sequence with S6P"}, "[3]": {"system": "GdhR WT;GdhR P6S P6S (Neisseria gonorrhoeae;Neisseria gonorrhoeae MS11), ORF:8165ddaf+ORF:8165ddaf"}},
  "note": "Substitutions are numbered along the chain they refer to.",
  "data": [
    {"sequence": "GTGGACGGGGACGGCGCGGTATTCGTGCCGCCGGAAGAATGCTGAAAATGCCGTCTGAAGCCTTTCGGGCGGCTTTTTCTACACGCCCCTTTCCCACACTCCCTCCGCCGCATCATCACCATCCTTAACCCGCATTAATAGCCATTATCGATAAAATGCTTGACCGATTACATAAGATTACGTAAAGTGTGCAAACGCATAATAATTGGTCTTACCAATTTATCTTTTAACCAAAATATCGGGTGTGCGGGATTTGAACGTCTTTCCAAACCTCGACGCGCCTTATGATGC (double strand) [lctP promoter -313 to -23]", "values": [
      {"measurement": "binding", "setting": "[1]", "value": "binds more weakly"},
      {"measurement": "binding", "setting": "[2]", "value": "binds"},
      {"measurement": "binding", "setting": "[3]", "value": "binds"}
    ]}
  ]
}
